The results in this text go back to US20250042970A1 (AURINIA PHARMACEUTICALS, published 2025).

Positions count from the first letter of the chain named. Like-named read-outs stand apart in the source and are kept apart here. Ends that are not written are not given here.

Test [1] deals with T1, FLAG-tagged human BAFF (human, UniProt Q9Y275 134-285, limits assumed).
T1 construct: used in BIACORE (Ex. 9) and KINEXA (Ex. 11); also called huBAFF
The test can be described thus: BIACORE SPR. How it is done: (§1) For human BAFF, cynomolgus monkey APRIL, and mouse APRIL measurements, mouse monoclonal antibody (IgG1) anti-FLAG M2 (Sigma Aldrich, Cat. No. F1804) was immobilized on CM3 sensor chips (GE Healthcare, Cat. No. BR-1005-41) according to the manufacturer's protocol. Antibody was diluted to 30 μg/ml in immobilization buffer (10 mM pH 5±0.20; GE Healthcare; GE Healthcare, Catalog No. BR-1003-51). […] Unreacted sites were quenched with 35 μl of 1M ethanolamine-HCl, pH 8.5 (GE Healthcare, GE Healthcare, Cat. No. BR-1000-50). This procedure typically yielded 3,000-4,000 response units (RU) of coupled antibody.
(§2) The fusion polypeptides were diluted in HBS-EP buffer and flowed over ligand-coated sensor chips. The variant BCMA-Ig and surrogate control fusion proteins were injected at three concentrations (1.5 nM, 15 nM, and 150 nM at 30 μl/min for 2 minutes per association phase) in a single binding cycle, followed by a 20 minute incubation with HBS-EP buffer containing no protein at the same flow rate. A similar protocol was followed for Z-TACI-Ig, except that the injections were at 4.5 nM, 45 nM, and 450 nM.
(§3) The various fusion proteins described above were expressed and purified as described previously (Examples 2 and 3 for the CET1019AS based plasmids and Examples 7 and 8 for the pcDNA based plasmids). […] The BAv9-1-Ig Fc proteins typically exist in solution as a dimeric fusion protein. The purified fusion proteins were assayed for binding activity using BIACORE (Example 9) and KINEXA (Example 11) assays.

The target in test [2] is T2, FLAG-tagged cynomolgous APRIL (cynomolgus monkey, UniProt A0ACM8R0G4 110-250 (rhesus entry)).
T2 construct: FLAG-tagged, expressed with TPA signal peptide; also called cyAPRIL
T2 sequence: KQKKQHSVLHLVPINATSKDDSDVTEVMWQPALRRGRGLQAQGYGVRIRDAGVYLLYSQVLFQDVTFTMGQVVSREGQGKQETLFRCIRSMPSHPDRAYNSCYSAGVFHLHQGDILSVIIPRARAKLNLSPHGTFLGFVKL
The test can be described thus: BIACORE SPR. As for the experimental part: as §1, §2, §3
On the technique in general: Surface plasmon resonance follows binding to a sensor surface in real time, without labels.

Test [3] has as its target T3, FLAG-tagged recombinant human APRIL (human, UniProt O75888 105-250).
T3 construct: KINEXA ligand; also called huAPRIL
T3 sequence: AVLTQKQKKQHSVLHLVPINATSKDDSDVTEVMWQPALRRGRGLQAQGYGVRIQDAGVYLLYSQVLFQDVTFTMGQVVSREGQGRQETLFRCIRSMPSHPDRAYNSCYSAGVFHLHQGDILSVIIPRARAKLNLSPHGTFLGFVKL
The test can be described thus: KinExA. As for the experimental part: (§4) Equilibrium measurements were performed using FLAG-tagged, recombinant huBAFF and huAPRIL ligands. Fixed ligand concentrations of human BAFF or human APRIL were incubated with serial dilutions of the variant BCMA ECD-Ig fusion polypeptides, and free ligand was detected in a KINEXA 3200 Instrument. variant BCMA ECD-Ig fusion polypeptides were first diluted in equilibration buffer (1×PBS, pH 7.4, 1 mg/ml BSA) to a range of concentrations from 10 nM to 100 fM. The linear portion of the dilution series was typically 2-fold. Ligands were diluted in equilibration buffer to fixed concentrations ranging from 5 to 20 pM and then incubated with the variant BCMA-Ig dilutions in total reaction volumes ranging from 4.5 to 15 ml. Samples were incubated at room temperature for 48-72 hours to reach equilibrium. For each data point, a fresh column of 850 μl of bead slurry coated with Variant BAv-238475-Ig was introduced into the KINEXA flow cell. Equilibrated samples ranging from 1 to 5 ml reaction volume were injected at a flow rate of 0.25 ml/min. […] The DyLight 649 fluorescent signal was detected using the red filter set (620/30 nanometer excitation filter, 670/40 nanometer emission filter, 645 nanometer dichroic filter) on the KinExA instrument and converted to a voltage signal that was directly proportional to the concentration of free ligand in the equilibrated sample.
as §3
(A kinetic exclusion assay measures how much of one partner remains free in solution.)

In test [4] the target is T1, FLAG-tagged human BAFF. The test can be described thus: KinExA. How it is done: as §4, §3
Test [5] addresses T1, FLAG-tagged human BAFF. The test can be described thus: BIACORE SPR; NB = No binding. How it is done:
as §1, §2
(§5) Using available information from the structures and published literature, several residues in BAv8-10 were targeted for substitution with conserved as well as non-conserved residues and their effect on BAFF and APRIL binding was assessed by BIACORE.

For test [6], the target named is T2, FLAG-tagged cynomolgous APRIL. The test can be described thus: BIACORE SPR; NB = No binding. As for the experimental part:
as §1, §2, §5

Test [7] has as its target T3, FLAG-tagged recombinant human APRIL. As to the kind of experiment: KinExA. The source holds these as a separate data set.
Test [8] has as its target T1, FLAG-tagged human BAFF. The test can be described thus: KinExA. This is another data set of the same source.
Test [9] deals with T3, FLAG-tagged recombinant human APRIL. The test can be described thus: KinExA. The source holds these as a separate data set.
Test [10] has as its target T1, FLAG-tagged human BAFF. As to the kind of experiment: KinExA. This is another data set of the same source.

For orientation: Kd means the concentration at which binding is half-saturated.

B1: BAv9-1-[K46-A50]del-pIg22 (Fc fusion, human)
chain: AGQCSQNEYFDHLIRACIPCQLRCSSNTPPLTCQRYCNAGVTNSV
modifications: cysteine pairing not given here; also: fused to PIg22 Fc, not in chain
notes: domain: Fc; also called BAv9-1-des[K46-A50]-PIg22; not shown: PIg22: chimeric Fc, CH2 domain of PIg18 (human IgG2 derivative) and CH3 domain of human IgG1
Take B1: the dissociation constant (Kd) with FLAG-tagged human BAFF [1] came to 20.4 pM; in test [2], 41.8 pM; in test [3], 0.31 pM; with FLAG-tagged human BAFF [4] it was 0.417 pM.

B2: BAv9-1K46G-pIg22 (Fc fusion, human)
chain: AGQCSQNEYFDHLIRACIPCQLRCSSNTPPLTCQRYCNAGVTNSVGGTNA
notes: domain: Fc; not shown: PIg22: chimeric Fc, CH2 domain of PIg18 (human IgG2 derivative) and CH3 domain of human IgG1
Regarding B2, the Kd with FLAG-tagged human BAFF [1] turned out to be 16.5 pM; in test [2] it was 45.6 pM; in [3] it was 0.32 pM; in the test with FLAG-tagged human BAFF [4] it was 0.484 pM.

B3: BAv9-1-pIg22 (Fc fusion, human)
chain: B2 chain with G46K
notes: as for B2
Turning to B3, the Kd in the test with FLAG-tagged human BAFF [1] came to 15.7 pM; in test [2], 33.7 pM; in test [3], 0.088 pM; with FLAG-tagged human BAFF [4], 0.537 pM.

B4: BAv77-Ig (Fc fusion)
chain: B2 chain with I14V, L22V, R23T, G46K
notes: not shown: PIg18: human IgG2 Fc, Ser at Fc positions 4, 5, 11 (native Cys)
On to B4, for which the binding result (with FLAG-tagged human BAFF [5]; in [6]) was “no binding (tested: 150 nM)” each time.

B5: BAv69-Ig (Fc fusion)
chain: B2 chain with I14V, I18Q, G46K
notes: as for B4
For B5, the binding result (in the test with FLAG-tagged human BAFF [5]; in [6]) was “no binding (tested: 150 nM)” throughout.

B6: BAv49-Ig (Fc fusion)
chain: B2 chain with H12P, L22V, G46K
notes: also called BAv49 (3)-Ig; BAv49-pIg18; not shown: PIg18: human IgG2 Fc, Ser at Fc positions 4, 5, 11 (native Cys)
In the case of B6, the Kd in [7] came to 313 pM; in the test with FLAG-tagged human BAFF [8] it was 0.842 pM; in the test with FLAG-tagged human BAFF [1], 16.2 pM; in test [2] it was 1450 pM; in [3] it was 313 pM; with FLAG-tagged human BAFF [4], 0.842 pM. For the same molecule, the “fold improvement over control” value was found to be 0.00051 fold in test [7] and 268 fold in the test with FLAG-tagged human BAFF [8]. Besides, the “Selectivity for huAPRIL (KD BAFF/KD APRIL)” value (from here on “Selectivity for huAPRIL”) in [9] stood at 0.003 ratio. Also, the “Selectivity for huBAFF (KD APRIL/KD BAFF)” value (from here on “Selectivity for huBAFF”) in the test with FLAG-tagged human BAFF [10] is 372 ratio.

B7: BAv70-Ig (Fc fusion)
chain: B2 chain with I18Q, G46K
notes: as for B4
For the molecule B7, the binding result (with FLAG-tagged human BAFF [5]; in test [6]) was “no binding (tested: 150 nM)” throughout.

B8: BAv76-Ig (Fc fusion)
chain: B2 chain with L22V, R23T, G46K
notes: as for B4
As for B8, the binding result (with FLAG-tagged human BAFF [5]; in test [6]) was “no binding (tested: 150 nM)” each time.

B9: BAv83-Ig (Fc fusion)
chain: B2 chain with H12P, I14V, L22I, G46K
notes: also called BAv83 (2)-Ig; BAv83-pIg18; not shown: PIg18: human IgG2 Fc, Ser at Fc positions 4, 5, 11 (native Cys)
As to B9, the Kd was determined as 114 pM in test [7]; 0.254 pM with FLAG-tagged human BAFF [8]; 8.09 pM with FLAG-tagged human BAFF [1]; 707 pM in test [2]; 114 pM in test [3]; 0.254 pM with FLAG-tagged human BAFF [4]. In addition, the “fold improvement over control” value in test [7] came to 0.0014 fold; with FLAG-tagged human BAFF [8], 890 fold. Also, in test [9], the “Selectivity for huAPRIL” value was 0.002 ratio. Further, in the test with FLAG-tagged human BAFF [10], the “Selectivity for huBAFF” value worked out at 449 ratio.

B10: BAv85-Ig (Fc fusion)
chain: B2 chain with I14V, L22A, G46K
notes: also called BAv85 (2)-Ig; BAv85-pIg18; not shown: PIg18: human IgG2 Fc, Ser at Fc positions 4, 5, 11 (native Cys)
B10: the dissociation constant (Kd) is 132 pM in test [7]; 0.0847 pM with FLAG-tagged human BAFF [8]; 8.03 pM in the test with FLAG-tagged human BAFF [1]; 773 pM in test [2]; 132 pM in test [3]; 0.085 pM in the test with FLAG-tagged human BAFF [4]. In addition, the “fold improvement over control” value was determined as 0.0012 fold in test [7] and 2660 fold in the test with FLAG-tagged human BAFF [8]. Also, the “Selectivity for huAPRIL” value in [9] came out at 0.001 ratio. In the test with FLAG-tagged human BAFF [10], the “Selectivity for huBAFF” value turned out to be 1560 ratio.

B11: BAv54-Ig (Fc fusion)
chain: B2 chain with I14S, L22V, G46K
notes: as for B4
For B11, the binding result (with FLAG-tagged human BAFF [5]; in [6]) was “no binding (tested: 150 nM)” throughout.

B12: BAv68-Ig (Fc fusion)
chain: B2 chain with H12S, I18Q, L22V, G46K
notes: as for B4
With B12, the binding result (with FLAG-tagged human BAFF [5]; in test [6]) was “no binding (tested: 150 nM)” throughout.

B13: BAv81-Ig (Fc fusion)
chain: B2 chain with H12P, I14V, L22V, G46K
notes: also called BAv81 (2)-Ig; BAv81-pIg18; not shown: PIg18: human IgG2 Fc, Ser at Fc positions 4, 5, 11 (native Cys)
Consider B13, for which the Kd in test [7] was 364 pM; with FLAG-tagged human BAFF [8], 0.246 pM; with FLAG-tagged human BAFF [1], 8.31 pM; in [2], 2060 pM; in [3] it was 364 pM; with FLAG-tagged human BAFF [4], 0.246 pM. The “fold improvement over control” value in [7] was 0.00044 fold; with FLAG-tagged human BAFF [8], 917 fold. Moreover, the “Selectivity for huAPRIL” value in [9] worked out at 0.001 ratio. Also, in the test with FLAG-tagged human BAFF [10], the “Selectivity for huBAFF” value was 1480 ratio.

B14: BAv67-Ig (Fc fusion)
chain: B2 chain with H12S, I14V, I18Q, L22V, G46K
notes: as for B4
With B14, the binding result (in the test with FLAG-tagged human BAFF [5]; in test [6]) was “no binding (tested: 150 nM)” each time.
